Test results as given in patent publication US20120177676A1 (COMPLIX, published 2012).

Target: T1, biotinylated C36 peptide bL4_C36 (residues 628 to 663 of HIV-1 HXB2 Env, gp41 HR2) (HIV-1 HXB2, N-terminal biotin attached through the Gly-Ser-Gly-Ser linker; C-terminal amide)
T1 construct: also called C36 derivative
T1 peptide: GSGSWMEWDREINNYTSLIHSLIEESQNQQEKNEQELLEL
Experiment: ITC, bL4_C36 (50 microM, syringe) titrated into scAB013_N3 (2.46 microM, cell), 1:1 binding model

B1: scAB013_N3 Alphabody, N-terminally appended with a (His)6 tag (designed binder)
chain: HHHHHHAAIAAQQHLIALIQWGIAQLQARIYAMTGGSSGGMSIEEIQKQIAAIQKQIAAIQKQIYRMTGGSSGGMSIQAIQKQLQAIVKQIKAIQKQILAMEA
notes: Expressed in E. coli BL21(DE3) from pET16b and purified by IMAC and SEC; also called gp41 N-trimer-mimicking Alphabody
Which Kd does the source give for B1 here?
The Kd was 0.15 µM.

And the ΔH?
Its ΔH is -30 kJ/mol.
